Experimental data from publication PMC10066184.

Target: GltTk_P208R (UniProt Q5JID0)
Assay: cryo-EM structure; single-particle cryo-EM of GltTk_P208R in MSP2N2 nanodiscs (E. coli lipids), 20 mM Tris-HCl pH 8.0, 100 mM KCl, with 300 mM NaCl and 100 uM L-Asp added; C3 symmetry imposed

stoichiometry N: 3
Substance: GltTk_P208R (from UniProt Q5JID0 1-430) (natural protein)
